Reference: article PMC2196246 (The Journal of Experimental Medicine, 1997)
No end group written: not given here.

Target: I-A^g7 (mouse (NOD; endogenous in 4G4.7 hybridoma))
Test: ELISA
Details: not given

| IC50 [nM] | Substance |
| --- | --- |
| > 50000 | HEL 9–17 (peptide) |
| 300 | HEL 9–21 (peptide) |
| 300 | HEL 9–22 (peptide) |
| 200 | HEL 9–24 (peptide) |
| 300 | HEL 9–25 (peptide) |
| 300 | HEL 9–26 (peptide) |
| 350 | HEL 9–27 (peptide) |
| 295 | HEL 10–22 (peptide) |
| 300 | HEL 10–22 A10L (peptide) |
| 350 | HEL 10–22 A11Y (peptide) |
| < 1000 | HEL 10–22 D18E (peptide) |
| 300 | HEL 10–22 D18P (peptide) |
| 200 | HEL 10–22 D18Q (peptide) |
| < 1000 | HEL 10–22 D18R (peptide) |
| 100 | HEL 10–22 D18Y (peptide) |
| 2000 | HEL 10–22 G16D (peptide) |
| 350 | HEL 10–22 G22A (peptide) |
| 650 | HEL 10–22 G22P (peptide) |
| 300 | HEL 10–22 G22Y (peptide) |
| 300 | HEL 10–22 H15A (peptide) |
| 1750 | HEL 10–22 H15D (peptide) |
| 300 | HEL 10–22 K13A (peptide) |
| 250 | HEL 10–22 K13Y (peptide) |
| 1000 to 10000 | HEL 10–22 L17F (peptide) |

| IC50 [nM] | Substance |
| --- | --- |
| 1000 to 10000 | HEL 10–22 L17H (peptide) |
| < 1000 | HEL 10–22 L17I (peptide) |
| < 1000 | HEL 10–22 L17M (peptide) |
| 1000 to 10000 | HEL 10–22 L17N (peptide) |
| 1000 to 10000 | HEL 10–22 L17T (peptide) |
| < 1000 | HEL 10–22 L17V (peptide) |
| 2000 | HEL 10–22 N19D (peptide) |
| 1000 to 10000 | HEL 10–22 N19E (peptide) |
| 1000 to 10000 | HEL 10–22 N19F (peptide) |
| < 1000 | HEL 10–22 N19G (peptide) |
| 2000 | HEL 10–22 N19Q (peptide) |
| 1000 to 10000 | HEL 10–22 N19R (peptide) |
| < 1000 | HEL 10–22 N19S (peptide) |
| > 50000 | HEL 10–22 N19Y (peptide) |
| 300 | HEL 10–22 R14A (peptide) |
| 1000 to 10000 | HEL 10–22 R14G (peptide) |
| 1000 to 10000 | HEL 10–22 R14S (peptide) |
| 1000 to 10000 | HEL 10–22 R14W (peptide) |
| 350 | HEL 10–22 R21K (peptide) |
| 350 | HEL 10–22 R21P (peptide) |
| 300 | HEL 10–22 R21Y (peptide) |
| < 1000 | HEL 10–22 Y20F (peptide) |
| 1000 to 10000 | HEL 10–22 Y20H (peptide) |
| 1000 to 10000 | HEL 10–22 Y20M (peptide) |

| IC50 [nM] | Substance |
| --- | --- |
| 1000 to 10000 | HEL 10–22 Y20N (peptide) |
| 2000 | HEL 10–22 Y20Q (peptide) |
| < 1000 | HEL 10–22 Y20R (peptide) |
| 1000 to 10000 | HEL 10–22 Y20W (peptide) |
| 295 | HEL 10–23 (peptide) |
| 300 | HEL 10–27 (peptide) |
| 300 | HEL 11–27 (peptide) |
| 250 | HEL 12–23 (peptide) |
| 300 | HEL 12–27 (peptide) |
| 250 | HEL 13–22 (peptide) |
| 200 | HEL 13–23 (peptide) |
| 300 | HEL 13–27 (peptide) |
| 2000 | HEL 14–27 (peptide) |
| > 50000 | HEL 16–27 (peptide) |
| > 50000 | HEL 17–27 (peptide) |
| > 50000 | HEL 18–27 (peptide) |
| > 50000 | HEL 19–27 (peptide) |
| 30000 | human proinsulin 5–19 (peptide) |
| 1000 | human proinsulin 9–23 (peptide) |
| 1000 | human proinsulin 21–35 (peptide) |
| 1000 | human proinsulin 25–39 (peptide) |
| 1000 | human proinsulin 49–63 (peptide) |

Tested on: purified I-A^g7
Test: biochemical
Assay type: binding, NOD mouse
Details: not given

| Substance | binding to I-A^g7 (in words) |
| --- | --- |
| KPKATAEQLKTVMDD [In serum albumin (560–574), reference compound] | did not bind |

Target: T1, purified I-A^g7 (Mus musculus, UniProt P04228+Q31135)
T1 sequence (P04228 24-256): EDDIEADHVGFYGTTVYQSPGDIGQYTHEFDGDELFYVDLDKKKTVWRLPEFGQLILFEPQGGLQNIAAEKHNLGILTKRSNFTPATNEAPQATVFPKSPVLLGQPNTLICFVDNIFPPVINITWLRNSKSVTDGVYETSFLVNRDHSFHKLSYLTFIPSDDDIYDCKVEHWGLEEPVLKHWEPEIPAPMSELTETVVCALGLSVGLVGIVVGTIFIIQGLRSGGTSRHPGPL
T1 sequence (Q31135 1-263): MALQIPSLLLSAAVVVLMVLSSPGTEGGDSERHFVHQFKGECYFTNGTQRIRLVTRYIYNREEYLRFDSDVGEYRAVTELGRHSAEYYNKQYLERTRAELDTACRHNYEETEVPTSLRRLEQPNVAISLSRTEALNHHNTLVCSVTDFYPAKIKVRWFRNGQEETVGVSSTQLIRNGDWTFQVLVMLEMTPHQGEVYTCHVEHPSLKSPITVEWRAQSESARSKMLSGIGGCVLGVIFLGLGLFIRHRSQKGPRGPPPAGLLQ
Test: biochemical
Assay type: binding, NOD mouse
Details: not given

| Substance | IC50 [nM] |
| --- | --- |
| AAAMKRHGLDNYR-NH2 [HEL 9–21] | 300 |
| AAAMKRHGLDNYRG-NH2 [HEL 9–22] | 300 |
| AAAMKRHGLDNYRGYS-NH2 [HEL 9–24] | 200 |
| AAAMKRHGLDNYRGYSL-NH2 [HEL 9–25] | 300 |
| AAAMKRHGLDNYRGYSLG-NH2 [HEL 9–26] | 300 |
| AAAMKRHGLDNYRGYSLGN-NH2 [HEL 9–27] | 350 |
| AAMKRHGLDNYRGYSLGN-NH2 [HEL 10–27] | 300 |
| AMKRHGLDNYRGYSLGN-NH2 [HEL 11–27] | 300 |
| HGLDNYRGYSLGN-NH2 [HEL 15–27] | 20000 |
| KRHGLDNYRG-NH2 [HEL 13–22] | 250 |
| KRHGLDNYRGY-NH2 [HEL 13–23] | 200 |
| KRHGLDNYRGYSLGN-NH2 [HEL 13–27] | 300 |
| MKRHGLDNYRGY-NH2 [HEL 12–23] | 250 |
| MKRHGLDNYRGYSLGN-NH2 [HEL 12–27] | 300 |
| RHGLDNYRGYSLGN-NH2 [HEL 14–27] | 2000 |

Tested on: purified I-A^g7
Test: not given
Details: cited from earlier work

| Substance | direct binding to purified I-A^g7 |
| --- | --- |
| HEL 11–25: HEL peptide tested by Carrasco-Marin et al. (AMKRHGLDNYRGYSL; UniProt P00698 29-43, looked up, fragment) | unable to demonstrate direct binding |
